Target: T1, HA-tagged ubiquitin-Vinyl Sulfone (UniProt P0CG48 1-76, vinyl sulfone (position not given))
T1 construct: ubiquitin, the mature cut product of a ubiquitin precursor, carrying a vinyl sulfone warhead; Commercial active-site probe; also called HA-UbVS; HA-Ub-VS; source: bought: Boston Biochem
Experiment: active-site-directed covalent labelling with HA-UbVS; purified 26S proteasomes (25 nM) incubated with HA-UbVS for 1 h at 37°C, boiled in reducing sample buffer, SDS-PAGE, HA immunoblot; without Aur, and after 2 μM Aur for 10 min (labelling reduced)
Conditions: both partners purified

B1: UCHL5 (enzyme, human, UniProt Q9Y5K5 1-329, looked up)
chain: MTGNAGEWCLMESDPGVFTELIKGFGCRGAQVEEIWSLEPENFEKLKPVHGLIFLFKWQPGEEPAGSVVQDSRLDTIFFAKQVINNACATQAIVSVLLNCTHQDVHLGETLSEFKEFSQSFDAAMKGLALSNSDVIRQVHNSFARQQMFEFDTKTSAKEEDAFHFVSYVPVNGRLYELDGLREGPIDLGACNQDDWISAVRPVIEKRIQKYSEGEIRFNLMAIVSDRKMIYEQKIAELQRQLAEEEPMDTDQGNSMLSAIQSEVAKNQMLIEEEVQKLKRYKIENIRRKHNYLPFIMELLKTLAEHQQLIPLVEKAKEKQNAKKAQETK
notes: UCHL5/Uch37, human, deubiquitinase associated with the 19S regulatory particle, present in purified 26S proteasomes; It stood in the assay as a component of the bought 26S proteasome and was resolved as a labelled band on SDS-PAGE; PDB 3RIS was used only for docking of the small molecule; also called UCHL5/Uch37; source: bought: Boston Biochem, as part of purified human 26S proteasomes
- binding result: binds

— paper PMC4170648, “Clinically used antirheumatic agent auranofin is a proteasomal deubiquitinase inhibitor and inhibits tumor growth” (Oncotarget, 2014)
